T1: Recombinant human FcγRIIb, 6xHis-tagged (human, UniProt P31994 46-217, limits assumed)
T1 construct: Captured through its 6xHis tag; also called huFcRIIb
T1 sequence: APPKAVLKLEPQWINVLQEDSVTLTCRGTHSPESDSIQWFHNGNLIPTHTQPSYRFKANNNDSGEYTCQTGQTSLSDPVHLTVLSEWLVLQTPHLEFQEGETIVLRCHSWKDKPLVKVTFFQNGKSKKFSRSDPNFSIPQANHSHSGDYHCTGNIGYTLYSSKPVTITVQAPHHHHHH

T2: Recombinant human FcγRIIa H131, 6xHis-tagged (human, UniProt P12318 36-218, limits assumed)
T2 construct: Captured through its 6xHis tag
T2 sequence: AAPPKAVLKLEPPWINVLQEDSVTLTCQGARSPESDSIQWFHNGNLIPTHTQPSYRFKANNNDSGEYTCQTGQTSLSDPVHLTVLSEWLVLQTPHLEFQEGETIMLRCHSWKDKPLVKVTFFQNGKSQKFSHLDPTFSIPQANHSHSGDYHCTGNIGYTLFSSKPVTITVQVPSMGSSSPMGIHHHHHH

T3: Recombinant human FcγRIIa R131, 6xHis-tagged (human, UniProt P12318 36-218, limits assumed)
T3 construct: Captured through its 6xHis tag
T3 sequence: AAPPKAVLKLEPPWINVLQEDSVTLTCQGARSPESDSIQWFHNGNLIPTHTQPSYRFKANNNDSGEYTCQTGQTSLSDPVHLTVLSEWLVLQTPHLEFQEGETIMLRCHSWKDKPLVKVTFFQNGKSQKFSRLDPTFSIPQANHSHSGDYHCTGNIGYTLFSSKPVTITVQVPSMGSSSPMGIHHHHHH

T4: Recombinant rat FcRn (rat, UniProt P13599 23-298, limits assumed)
T4 construct: FcRn is normally a heterodimer with beta-2-microglobulin
T4 sequence (looked up) 1: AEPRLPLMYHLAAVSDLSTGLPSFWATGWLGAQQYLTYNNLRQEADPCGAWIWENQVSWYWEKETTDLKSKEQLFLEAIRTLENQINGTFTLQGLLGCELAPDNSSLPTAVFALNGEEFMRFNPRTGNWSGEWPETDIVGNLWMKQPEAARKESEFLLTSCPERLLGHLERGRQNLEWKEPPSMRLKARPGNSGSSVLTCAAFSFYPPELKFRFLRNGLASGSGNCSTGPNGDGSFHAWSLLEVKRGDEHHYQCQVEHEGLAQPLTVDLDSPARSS
T4 sequence (looked up) 2: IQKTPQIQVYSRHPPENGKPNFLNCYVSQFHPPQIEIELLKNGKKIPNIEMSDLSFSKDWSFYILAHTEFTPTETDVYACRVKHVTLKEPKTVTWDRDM


Key:
[1] = biological target: T1, Recombinant human FcγRIIb, 6xHis-tagged; experiment: Biacore SPR; His-tagged human FcγR captured on anti-6xHis antibody, DVD-Ig injected
Description: (§1) A CM5 chip (GE Healthcare, Pittsburgh, Pa.) with mouse anti-6×His antibodies (“6×His” disclosed as SEQ ID NO: 405) that were directly immobilized on the chip via amine coupling according to the GE Healthcare protocol to the density of 10000RU (all flow cells) was used for experiments. Human FcγRs were captured on flow cells 2, 3 and 4. Flow cell 1 was used as a reference surface. HBS-EP+ was used as the running buffer. […] The chip surfaces were regenerated with an injection of 10 mM glycine pH 1.5 at a flow rate of 100 μL/minute over all four flow cells after each cycle.

[2] = biological target: T2, Recombinant human FcγRIIa H131, …; experiment: as above
Description: as §1

[3] = biological target: T3, Recombinant human FcγRIIa R131, …; experiment: as above
Description: as §1

[4] = biological target: T5, Recombinant human FcγRIIIa F158, 6xHis-tagged (human, UniProt P08637 17-208, limits assumed); experiment: as above
T5 construct: Captured through its 6xHis tag
Description: as §1

[5] = biological target: T4, Recombinant rat FcRn; experiment: Biacore SPR; DVD-Ig immobilised by amine coupling, recombinant FcRn injected; 1:1 binding fit
Description: Human, cynomolgus, mouse, rat and rabbit recombinant FcRns were injected over all the flow cells at a flow rate of 50 μL/minute for 1 minute at a concentrations range of from 2.7 to 6000 nM (three fold serial dilution), followed by a 2 minute dissociation time. The surfaces were regenerated with an injection of 10 mM HCl at 100 μL/minute for 2 seconds followed by an injection of HBS-EP+, pH 7.4, at a flow rate of 50 μL/minute for 30 seconds over all four flow cells. Samples were prepared and run in two running buffer systems, pH 6.0 MES-EP+, and pH […]. Recombinant human FcγRIIIa V158 and rat and mouse FcRn data were fitted to 1:1 kinetic model. Recombinant human FcγRIIa R131 and FcγRIIa H131, FcγRIIIa F158, and recombinant human, cynomolgus and rabbit FcRn binding data were fitted to a steady state affinity model. Biacore T200 Evaluation Software version 2.0 was used to fit all the data.

[6] = biological target: T6, Recombinant human FcγRIIIa V158, 6xHis-tagged (human, UniProt P08637 17-208, limits assumed); experiment: Biacore SPR; His-tagged huFcγRIIIa 158V captured on anti-6xHis antibody, DVD-Ig injected; steady state fit
T6 construct: Captured through its 6xHis tag; also called huFcRIIIa 158V
Description: as §1
The binding of DVD-Ig molecules to FcRn from various species and the binding of DVD-Ig molecules to various FcγRs were characterized by Biacore using the method described in Example 1.2.

T5 sequence (P08637 other isoform, or with tags, fused parts or gaps limits assumed): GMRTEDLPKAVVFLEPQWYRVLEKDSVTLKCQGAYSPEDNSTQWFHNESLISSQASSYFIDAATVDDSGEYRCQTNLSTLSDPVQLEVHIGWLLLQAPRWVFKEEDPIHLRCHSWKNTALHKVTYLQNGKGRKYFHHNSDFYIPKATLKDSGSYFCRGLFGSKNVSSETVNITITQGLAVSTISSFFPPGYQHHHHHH
T6 sequence (P08637 other isoform, or with tags, fused parts or gaps limits assumed): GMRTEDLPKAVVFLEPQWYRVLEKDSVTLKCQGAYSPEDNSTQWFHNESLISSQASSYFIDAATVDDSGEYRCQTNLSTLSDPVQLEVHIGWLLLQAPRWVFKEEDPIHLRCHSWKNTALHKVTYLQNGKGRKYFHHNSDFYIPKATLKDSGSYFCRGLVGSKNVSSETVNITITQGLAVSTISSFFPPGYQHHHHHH

Binder	binding result [1]	binding result [2]	binding result [3]	binding result [4]	binding result [5]	Kd [6]
4G8.3-GS-9E8.4(g) (PR-1572102), anti-VEGF-A/anti-PDGF-BB DVD-Ig, hu IgG1/k L234A L235A H435A (bispecific antibody, also called 4G8.3-GS(9)-9E8.4 (g); hu VEGF 4G8.3-GS-hu PDGF 9E8.4 (germline) [hu IgG1/k]; LALA H435A) heavy: EVQLVQSGSELKKPGASVKVSCKASGYTFTNYGMYWVRQAPGQGLEWMGWINTETGKPTYADDFKGRFVFSLDTSVSTAYLQISSLKAEDTAVYYCARTNYYYRSYIFYFDYWGQGTMVTVSSGGGGSGGGGSEVTLRESGPALVKPTQTLTLTCTFSGFSLSTYGMGVGWIRQPPGKALEWLANIWWDDDKYYNPSLKNRLTISKDTSKNQVVLTMTNMDPVDTATYYCARIESIGTTYSFDYWGQGTMVTVSSASTKGPSVFPLAPSSKSTSGGTAALGCLVKDYFPEPVTVSWNSGALTSGVHTFPAVLQSSGLYSLSSVVTVPSSSLGTQTYICNVNHKPSNTKVDKKVEPKSCDKTHTCPPCPAPEAAGGPSVFLFPPKPKDTLMISRTPEVTCVVVDVSHEDPEVKFNWYVDGVEVHNAKTKPREEQYNSTYRVVSVLTVLHQDWLNGKEYKCKVSNKALPAPIEKTISKAKGQPREPQVYTLPPSREEMTKNQVSLTCLVKGFYPSDIAVEWESNGQPENNYKTTPPVLDSDGSFFLYSKLTVDKSRWQQGNVFSCSVMHEALHNAYTQKSLSLSPGK light: DTVLTQSPATLSLSPGERATLSCRASESVSTHMHWYQQKPGQAPRLLIYGASNLESGVPARFSGSGSGTDFTLTISSLEPEDFAVYFCQQSWNDPFTFGQGTKLEIKRGGSGGGGSGEFVLTQSPGTLSLSPGERATLSCERSSGDIGDSYVSWYQQKPGQAPRLVIYADDQRPSGIPDRFSGSGSGTDFTLTISRLEPEDFAVYYCQSYDINIDIVFGGGTKVEIKRTVAAPSVFIFPPSDEQLKSGTASVVCLLNNFYPREAKVQWKVDNALQSGNSQESVTEQDSKDSTYSLSSTLTLSKADYEKHKVYACEVTHQGLSSPVTKSFNRGEC	no binding (tested: DVD-Ig 31.25 to 4000 nM)	no binding (tested: DVD-Ig 31.25 to 4000 nM)	no binding (tested: DVD-Ig 31.25 to 4000 nM)	no binding (tested: DVD-Ig 31.25 to 4000 nM)	no binding (tested: FcRn 2.7 to 6000 nM)	7.4 µM
4G8.3-GS-9E8.4 (PR-1569574), anti-VEGF-A/anti-PDGF-BB DVD-Ig, hu IgG1/k mut(234,235) H435A (bispecific antibody, also called hVEGF 4G8.3-GS-hPDGF 9E8.4 [hu IgG1/k] mut(234, 235) H435A) heavy: EVQLVQSGSELKKPGASVKVSCKASGYTFTNYGMYWVRQAPGQGLEWMGWINTETGKPTYADDFKGRFVFSLDTSVSTAYLQISSLKAEDTAVYYCARTNYYYRSYIFYFDYWGQGTMVTVSSGGGGSGGGGSEVTLRESGPALVKPTQTLTLTCTFSGFSLSTYGMGVGWIRQPPGKALEWLANIWWDDDKYYNPSLKNRLTISKDTSKNQVVLTMTNMDPVDTATYYCARIESIGTTYSFDYWGQGTMVTVSSASTKGPSVFPLAPSSKSTSGGTAALGCLVKDYFPEPVTVSWNSGALTSGVHTFPAVLQSSGLYSLSSVVTVPSSSLGTQTYICNVNHKPSNTKVDKKVEPKSCDKTHTCPPCPAPEAAGGPSVFLFPPKPKDTLMISRTPEVTCVVVDVSHEDPEVKFNWYVDGVEVHNAKTKPREEQYNSTYRVVSVLTVLHQDWLNGKEYKCKVSNKALPAPIEKTISKAKGQPREPQVYTLPPSREEMTKNQVSLTCLVKGFYPSDIAVEWESNGQPENNYKTTPPVLDSDGSFFLYSKLTVDKSRWQQGNVFSCSVMHEALHNAYTQKSLSLSPGK light: DTVLTQSPATLSLSPGERATLSCRASESVSTHMHWYQQKPGQAPRLLIYGASNLESGVPARFSGSGSGTDFTLTISSLEPEDFAVYFCQQSWNDPFTFGQGTKLEIKRGGSGGGGSGEFVLTQSPGTLSLSPGERATLSCERSSGDIGDSYVSWYQQKPGQAPRLVIYADDQRPSGIPDRFSGSGSGTDFTLTISRLEPEDFAVYYCQSYDINIDIVFGGGTKVEIKGTVAAPSVFIFPPSDEQLKSGTASVVCLLNNFYPREAKVQWKVDNALQSGNSQESVTEQDSKDSTYSLSSTLTLSKADYEKHKVYACEVTHQGLSSPVTKSFNRGEC	no binding (tested: DVD-Ig 31.25 to 4000 nM)	no binding (tested: DVD-Ig 31.25 to 4000 nM)	no binding (tested: DVD-Ig 31.25 to 4000 nM)	no binding (tested: DVD-Ig 31.25 to 4000 nM)	no binding (tested: FcRn 2.7 to 6000 nM)	16 µM
4G8.3-SL-9E8.4(g) (PR-1572105), anti-VEGF-A/anti-PDGF-BB DVD-Ig, hu IgG1/k L234A L235A H435A (bispecific antibody, also called hu VEGF 4G8.3-SL-hu PDGF 9E8.4 (germline) [hu IgG1/k]; LALA H435A) heavy: EVQLVQSGSELKKPGASVKVSCKASGYTFTNYGMYWVRQAPGQGLEWMGWINTETGKPTYADDFKGRFVFSLDTSVSTAYLQISSLKAEDTAVYYCARTNYYYRSYIFYFDYWGQGTMVTVSSASTKGPEVTLRESGPALVKPTQTLTLTCTFSGFSLSTYGMGVGWIRQPPGKALEWLANIWWDDDKYYNPSLKNRLTISKDTSKNQVVLTMTNMDPVDTATYYCARIESIGTTYSFDYWGQGTMVTVSSASTKGPSVFPLAPSSKSTSGGTAALGCLVKDYFPEPVTVSWNSGALTSGVHTFPAVLQSSGLYSLSSVVTVPSSSLGTQTYICNVNHKPSNTKVDKKVEPKSCDKTHTCPPCPAPEAAGGPSVFLFPPKPKDTLMISRTPEVTCVVVDVSHEDPEVKFNWYVDGVEVHNAKTKPREEQYNSTYRVVSVLTVLHQDWLNGKEYKCKVSNKALPAPIEKTISKAKGQPREPQVYTLPPSREEMTKNQVSLTCLVKGFYPSDIAVEWESNGQPENNYKTTPPVLDSDGSFFLYSKLTVDKSRWQQGNVFSCSVMHEALHNAYTQKSLSLSPGK light: DTVLTQSPATLSLSPGERATLSCRASESVSTHMHWYQQKPGQAPRLLIYGASNLESGVPARFSGSGSGTDFTLTISSLEPEDFAVYFCQQSWNDPFTFGQGTKLEIKRTVAAPSVFIFPPEFVLTQSPGTLSLSPGERATLSCERSSGDIGDSYVSWYQQKPGQAPRLVIYADDQRPSGIPDRFSGSGSGTDFTLTISRLEPEDFAVYYCQSYDINIDIVFGGGTKVEIKRTVAAPSVFIFPPSDEQLKSGTASVVCLLNNFYPREAKVQWKVDNALQSGNSQESVTEQDSKDSTYSLSSTLTLSKADYEKHKVYACEVTHQGLSSPVTKSFNRGEC	no binding (tested: DVD-Ig 31.25 to 4000 nM)	no binding (tested: DVD-Ig 31.25 to 4000 nM)	no binding (tested: DVD-Ig 31.25 to 4000 nM)	no binding (tested: DVD-Ig 31.25 to 4000 nM)	no binding (tested: FcRn 2.7 to 6000 nM)	6.2 µM

Reference: patent US20170015742A1 (published 2017)
